The record followed here is IntAct's records for PubMed 29691401.

Sequences and labels used below:
B1: "Lethal(3)malignant brain tumor-like protein 3" (Homo sapiens), Q96JM7 (parent)
chain: MTESASSTSGQEFDVFSVMDWKDGVGTLPGSDLKFRVNEFGALEVITDENEMENVKKATATTTWMVPTAQEAPTSPPSSRPVFPPAYWTSPPGCPTVFSEKTGMPFRLKDPVKVEGLQFCENCCQYGNVDECLSGGNYCSQNCARHIKDKDQKEERDVEEDNEEEDPKCSRKKKPKLSLKADTKEDGEERDDEMENKQDVRILRGSQRARRKRRGDSAVLKQGLPPKGKKAWCWASYLEEEKAVAVPAKLFKEHQSFPYNKNGFKVGMKLEGVDPEHQSVYCVLTVAEVCGYRIKLHFDGYSDCYDFWVNADALDIHPVGWCEKTGHKLHPPKGYKEEEFNWQTYLKTCKAQAAPKSLFENQNITVIPSGFRVGMKLEAVDKKNPSFICVATVTDMVDNRFLVHFDNWDESYDYWCEASSPHIHPVGWCKEHRRTLITPPGYPNVKHFSWDKYLEETNSLPAPARAFKVKPPHGFQKKMKLEVVDKRNPMFIRVATVADTDDHRVKVHFDGWNNCYDYWIDADSPDIHPVGWCSKTGHPLQPPLSPLELMEASEHGGCSTPGCKGIGHFKRARHLGPHSAANCPYSEINLNKDRIFPDRLSGEMPPASPSFPRNKRTDANESSSSPEIRDQHADDVKEDFEERTESEMRTSHEARGAREEPTVQQAQRRSAVFLSFKSPIPCLPLRWEQQSKLLPTVAGIPASKVSKWSTDEVSEFIQSLPGCEEHGKVFKDEQIDGEAFLLMTQTDIVKIMSIKLGPALKIFNSILMFKAAEKNSHNEL

The variants in one experiment derive from B1. Particulars: with dnmt1_human DNMT1, P26358.
dnmt1_human DNMT1, P26358, sequence (P26358 whole entry): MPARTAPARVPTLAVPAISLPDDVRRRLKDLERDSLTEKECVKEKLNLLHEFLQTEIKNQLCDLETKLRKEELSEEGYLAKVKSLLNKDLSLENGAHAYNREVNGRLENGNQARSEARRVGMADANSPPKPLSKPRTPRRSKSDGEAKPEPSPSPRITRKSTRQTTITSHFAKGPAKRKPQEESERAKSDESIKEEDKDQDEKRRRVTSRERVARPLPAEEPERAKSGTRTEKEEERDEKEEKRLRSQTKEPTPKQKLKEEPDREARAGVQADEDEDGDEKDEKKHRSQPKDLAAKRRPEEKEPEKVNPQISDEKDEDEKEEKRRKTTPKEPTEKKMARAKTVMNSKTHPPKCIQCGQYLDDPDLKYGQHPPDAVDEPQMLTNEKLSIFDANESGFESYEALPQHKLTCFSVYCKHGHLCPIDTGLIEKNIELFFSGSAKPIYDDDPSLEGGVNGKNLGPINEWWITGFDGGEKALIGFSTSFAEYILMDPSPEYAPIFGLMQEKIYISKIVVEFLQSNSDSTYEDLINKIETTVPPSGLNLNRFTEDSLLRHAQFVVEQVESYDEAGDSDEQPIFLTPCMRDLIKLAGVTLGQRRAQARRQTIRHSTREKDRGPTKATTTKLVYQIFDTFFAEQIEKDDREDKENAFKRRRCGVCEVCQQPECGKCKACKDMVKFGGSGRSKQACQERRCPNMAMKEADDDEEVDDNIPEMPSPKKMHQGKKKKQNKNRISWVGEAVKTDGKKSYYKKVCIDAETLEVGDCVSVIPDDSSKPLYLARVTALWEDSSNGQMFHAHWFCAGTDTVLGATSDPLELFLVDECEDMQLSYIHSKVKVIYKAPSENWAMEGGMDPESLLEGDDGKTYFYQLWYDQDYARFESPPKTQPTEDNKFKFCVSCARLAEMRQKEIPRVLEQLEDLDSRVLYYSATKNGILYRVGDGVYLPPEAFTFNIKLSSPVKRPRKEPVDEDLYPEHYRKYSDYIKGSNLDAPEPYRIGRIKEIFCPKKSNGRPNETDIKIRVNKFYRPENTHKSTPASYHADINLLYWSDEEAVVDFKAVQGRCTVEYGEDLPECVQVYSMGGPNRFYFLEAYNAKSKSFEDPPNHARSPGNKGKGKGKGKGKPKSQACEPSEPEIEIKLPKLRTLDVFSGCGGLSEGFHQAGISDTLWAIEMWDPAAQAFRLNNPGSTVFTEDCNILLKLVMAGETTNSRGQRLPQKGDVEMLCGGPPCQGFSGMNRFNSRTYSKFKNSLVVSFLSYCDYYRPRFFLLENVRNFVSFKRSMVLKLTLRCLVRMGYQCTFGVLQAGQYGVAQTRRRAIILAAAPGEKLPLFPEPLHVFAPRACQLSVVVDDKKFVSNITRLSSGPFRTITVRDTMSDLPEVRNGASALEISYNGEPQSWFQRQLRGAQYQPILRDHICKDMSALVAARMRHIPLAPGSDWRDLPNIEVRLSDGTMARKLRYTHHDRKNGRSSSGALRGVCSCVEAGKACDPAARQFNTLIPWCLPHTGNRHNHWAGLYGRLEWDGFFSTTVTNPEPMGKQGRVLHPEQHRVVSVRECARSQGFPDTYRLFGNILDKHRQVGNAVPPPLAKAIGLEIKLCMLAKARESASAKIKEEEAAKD
Turning to D381N, the “effect of a mutation on the interaction” value is given as “disrupting interaction strength”.

Variants of B1 are the subject of a further experiment. The conditions noted are these: with dnmt1_human DNMT1, P26358. The source holds these as a separate data set.
For the variant D381N, the “effect of a mutation on the interaction” value is given as “decreasing interaction strength”.
